Target: T1, 16TR-MUC1-Tn (human, UniProt P15941 126-445, limits assumed, Tn glycoform (GalNAcα1-O-Ser/Thr); glycosylated sites of the reagent not stated)
T1 construct: domain: 16TR; also called Tn-MUC1; TnMUC1
Experiment: Tn-MUC1 binding ELISA (protocol 4), plate-coated 16TR-MUC1-Tn

T1 sequence (P15941 126-445 limits assumed): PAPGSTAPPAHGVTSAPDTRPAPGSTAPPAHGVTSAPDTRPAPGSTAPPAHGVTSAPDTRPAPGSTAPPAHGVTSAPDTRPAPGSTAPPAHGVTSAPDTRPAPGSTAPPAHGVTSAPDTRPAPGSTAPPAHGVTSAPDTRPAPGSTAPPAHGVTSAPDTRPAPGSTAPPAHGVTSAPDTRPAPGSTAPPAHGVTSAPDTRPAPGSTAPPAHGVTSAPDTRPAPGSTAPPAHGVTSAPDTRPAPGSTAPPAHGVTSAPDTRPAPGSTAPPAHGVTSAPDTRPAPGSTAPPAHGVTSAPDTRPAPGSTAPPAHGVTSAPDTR

B1: Mouse 5E5 (antibody, V domains shown)
VH: QVQLQQSDAELVKPGSSVKISCKASGYTFTDHAIHWVKQKPEQGLEWIGHFSPGNTDIKYNDKFKGKATLTVDRSSSTAYMQLNSLTSEDSAVYFCKTSTFFFDYWGQGTTLTVSS
VL: DIVMTQSPSSLTVTAGEKVTMICKSSQSLLNSGDQKNYLTWYQQKPGQPPKLLIFWASTRESGVPDRFTGSGSGTDFTLTISSVQAEDLAVYYCQNDYSYPLTFGAGTKLELK
notes: V regions were subcloned into pFUSE-CHIg-hG1 (human IgG1) and pFUSE2-CLIg-hk (human kappa) vectors and expressed in HEK293 cells; also called mouse 5E5 antibody; 5E5VH/5E5VK
Binder B1 has an EC50 of 0.0311 µg/mL.

B2: Ab5 (antibody, human IgG1, V domains shown)
VH: EVQLVQSGAEVKKPGESLKISCKISGYIFTDHAIHWVRQMPGKGLEWMGHFSPGNTDIKYNDKFKGQVTLSVDRSINTAYLQWSSLKASDTAIYFCKTSTFFFDYWGQGTRVTVSS
VL: DIVMTQSPLSLPVTPGEPASISCKSSQSLLNSGDQKNYLTWYLQKPGQSPQLLIYWASTRESGVPDRFSGSGSGTDFTLKISRVEAEDVGVYYCQNDYSYPLTFGGGTKVEIK
notes: Expressed as human IgG1/kappa from pFUSE-CHIg-hG1 and pFUSE2-CLIg-hk vectors; also called 5E5RHB10 / 5E5RKB
For B2, the EC50 was 0.0269 µg/mL.

B3: Ab6 (antibody, human IgG1, V domains shown)
VH: EVQLVESGAEVKKPGASVEVSCQASGYTFTDHAIHWVRQAPGQGLEWMGHFSPGNTDIKYNDKFKGRVTMTVDRSINTAYMELRRLRSDDTAVYYCKTSTFFFDYWGQGTMVTVSS
VL: B2 VL
notes: Expressed as human IgG1/kappa from pFUSE-CHIg-hG1 and pFUSE2-CLIg-hk vectors; also called 5E5RHC9 / 5E5RKB
In the case of B3, the EC50 is reported as 0.0198 µg/mL.

B4: Ab1 (antibody, V domains shown)
VH: QVQLVQSGAEVKKTGSSVKVSCKASGYTFTDHAIHWVRQAPGQALEWMGHFSPGNTDIKYNDKFKGRVTLTVDRSMSTAYMELSSLRSEDTAMYYCKTSTFFFDYWGQGTMVTVSS
VL: DIVMTQSPDSLAVSLGERATINCKSSQSLLNSGDQKNYLTWYQQKPGQPPKLLIYWASTRESGVPDRFSGSGSGTDFTLTISSLQAEDVAVYYCQNDYSYPLTFGQGTKVEIK
notes: Expressed as human IgG1/kappa from pFUSE-CHIg-hG1 and pFUSE2-CLIg-hk vectors; also called 5E5RHA8 / 5E5RKA
For B4, the EC50 was 0.0246 µg/mL.

B5: Ab2 (antibody, V domains shown)
VH: B2 VH
VL: B4 VL
notes: Expressed as human IgG1/kappa from pFUSE-CHIg-hG1 and pFUSE2-CLIg-hk vectors; also called 5E5RHB10 / 5E5RKA
Binder B5 has an EC50 of 0.0345 µg/mL.

B6: Ab3 (antibody, V domains shown)
VH: B3 VH
VL: B4 VL
notes: Expressed as human IgG1/kappa from pFUSE-CHIg-hG1 and pFUSE2-CLIg-hk vectors; also called 5E5RHC9 / 5E5RKA
Work on B6 yielded an EC50 of 0.0615 µg/mL.

B7: Ab4 (antibody, human IgG1, V domains shown)
VH: B4 VH
VL: B2 VL
notes: Expressed as human IgG1/kappa from pFUSE-CHIg-hG1 and pFUSE2-CLIg-hk vectors; also called 5E5RHA8 / 5E5RKB
In the case of B7, the EC50 is reported as 0.0755 µg/mL.
